From article PMC8326762, “A Small Molecule Inhibitor of Pex3–Pex19 Interaction Disrupts Glycosome Biogenesis and Causes Lethality in Trypanosoma brucei” (Frontiers in Cell and Developmental Biology, 2021) come the findings set out here.

One assay deals with T1, TbPex3 (Trypanosoma brucei, UniProt Q383Q3).
T1 construct: gene Tb11.01.2020; MBP fusion to TbPex3 (with 6 × His-TbPex19), recombinant from E. coli; with TbPex19
The experiment in a line: pull-down and MST with purified MBP-TbPex3 and NT-647-labeled His-TbPex19; inhibition of protein-protein interaction. The format is binding.

Assay [1] deals with His-HsPex19 (human) (UniProt P40855). In words: MST; Monolith NT.115; 100 nM each of NT-647-labeled His-Pex19 and MBP-Pex3 with DMNQ titrated from 3 nM to 100 μM; apparent.
Assay [2] shares this target. The experiment in a line: MST; Monolith NT.115; MBP-Pex3 (0–2.5 μM) titrated into 100 nM NT-647-labeled His-Pex19; 50 mM Tris–HCl, pH 7.4, 150 mM NaCl, 10 mM MgCl2, 0.05% Tween-20.
Assay [3] addresses His-TbPex19 (T. brucei). The experiment in a line: MST; Monolith NT.115; 100 nM each of NT-647-labeled His-Pex19 and MBP-Pex3 with DMNQ titrated from 3 nM to 100 μM; apparent.
The target of assay [4] is His-TbPex19 (T. brucei). The experiment in a line: MST; Monolith NT.115; MBP-Pex3 (0–2.5 μM) titrated into 100 nM NT-647-labeled His-Pex19; 50 mM Tris–HCl, pH 7.4, 150 mM NaCl, 10 mM MgCl2, 0.05% Tween-20.

By Kd is commonly meant the equilibrium constant for the complex coming apart. Low readings indicate tighter binding, high ones weaker binding.

Chain of His-HsPex19 (human) (P40855 whole entry): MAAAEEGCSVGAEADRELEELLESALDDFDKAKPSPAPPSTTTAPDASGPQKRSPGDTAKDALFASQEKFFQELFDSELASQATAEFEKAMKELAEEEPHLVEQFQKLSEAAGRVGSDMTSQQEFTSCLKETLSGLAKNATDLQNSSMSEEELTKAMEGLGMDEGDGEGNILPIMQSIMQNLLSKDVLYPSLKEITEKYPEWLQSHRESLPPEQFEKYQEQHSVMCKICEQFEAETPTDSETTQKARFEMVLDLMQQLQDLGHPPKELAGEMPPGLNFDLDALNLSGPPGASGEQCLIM

Consider `COC1=C(OC)C(=O)c2ccccc2C1=O` [2,3-dimethoxy-1,4-naphthoquinone], for which the “pull-down and MST with purified MBP-TbPex3 and NT-647-labeled His-TbPex19; inhib” value at TbPex3 came to 39.6 ± 0.86 µM.
Regarding “MBP-HsPex3 (from UniProt P56589 1-373) (natural protein)”, in the assay with His-HsPex19 (human) [1], the KD with DMNQ titrated in came out at 14.5 nM. Further, in the assay with His-HsPex19 (human) [2], the Kd came out at 4.37 nM.
On to MBP-TbPex3 (natural protein), for which the apparent KD with DMNQ titrated in in the assay with His-TbPex19 (T. brucei) [3] was found to be 39600 nM. The Kd in the assay with His-TbPex19 (T. brucei) [4] stood at 3.8 nM.
